Kd data for two substances are collected here from article PMC5324736.

pKd: −log10 of the molar value. Like-named read-outs stand apart in the source and are kept apart here.

The target of experiment [1] is eIF2•GDPNP•Met-tRNAi ternary complex. Put plainly: native gel or EMSA.
Experiment [2] has the same target. Put plainly: native gel or EMSA. This is another data set of the same source.

For the substance “40S ribosomal subunit, anion exchange column preparation (complex)”, the pKd in experiment [1] was > 9.00; in experiment [2] it was 7.85.
For “40S ribosomal subunit, sucrose cushion preparation (complex)” the same measures were > 9.00 and 7.89.
